B1: Deglyco-C2: deglycosylated clone 1 IgG; light chain CDR1 TGSSSNIGATAVT (SEQ ID NO: 3) (antibody, V domains shown)
VH: EVQLVESGGGLVQPGGSLRLSCAVSGFTFSGYDMSWIRQAPGKGLEWVAGIYPDGGNTYYADSVKGRFTISRDDSKNTFYLQMNSLRAEDTAVYYCARGATWWVLGPFDYWGQGTLVTVSS
VL: DIQLTQSPSSLSASVGDRVTITCTGSSSNIGATAVTWYQQKPGKAPKLLIYADSHRPSGVPSRFSGSGSGTDFTLTISSLQPEDFATYYCGAWDDSLSGYVFGQGTKVEIKR
B2: Deglyco-C3: deglycosylated clone 1 IgG; light chain CDR1 TGSSSNIGWSNVT (SEQ ID NO: 4) (antibody, V domains shown)
VH: EVQLVESGGGLVQPGGSLRLSCAVSGFTFSGYDMSWIRQAPGKGLEWVAGIYPDGGNTYYADSVKGRFTISRDDSKNTFYLQMNSLRAEDTAVYYCARGATWWVLGPFDYWGQGTLVTVSS
VL: DIQLTQSPSSLSASVGDRVTITCTGSSSNIGWSNVTWYQQKPGKAPKLLIYADSHRPSGVPSRFSGSGSGTDFTLTISSLQPEDFATYYCGAWDDSLSGYVFGQGTKVEIKR
B3: Deglyco-C4: deglycosylated clone 1 IgG; light chain CDR1 TGSSSNIGAVVVT (SEQ ID NO: 5) (antibody, V domains shown)
VH: EVQLVESGGGLVQPGGSLRLSCAVSGFTFSGYDMSWIRQAPGKGLEWVAGIYPDGGNTYYADSVKGRFTISRDDSKNTFYLQMNSLRAEDTAVYYCARGATWWVLGPFDYWGQGTLVTVSS
VL: DIQLTQSPSSLSASVGDRVTITCTGSSSNIGAVVVTWYQQKPGKAPKLLIYADSHRPSGVPSRFSGSGSGTDFTLTISSLQPEDFATYYCGAWDDSLSGYVFGQGTKVEIKR

Experiment: aggregation and purification amounts of deglycosylated antibodies, before and after φ
Assay type: physicochemical
Conditions: based on 100 ml culture
For B1, the “Final um, After φ” value was 5.018 mg, the “Final um, Before φ” value was 5.032 mg and the “Fraction1, After φ” value was 0.018 mg. For the same molecule, the “Fraction1, Before φ” value was 0.019 mg, the “Fraction2, After φ” value was 3.702 mg and the “Fraction2, Before φ” value was 3.718 mg. The “Fraction3, After φ” value was 1.110 mg, the “Fraction3, Before φ” value was 1.113 mg and the “Fraction4, After φ” value was 0.198 mg. The “Fraction4, Before φ” value was 0.201 mg. In the case of B2, the “Final um, After φ” value is reported as 2.768 mg, the “Final um, Before φ” value is reported as 2.918 mg and the “Fraction1, After φ” value is reported as 0.012 mg. The “Fraction1, Before φ” value was 0.014 mg, the “Fraction2, After φ” value was 2.109 mg and the “Fraction2, Before φ” value was 2.209 mg. The “Fraction3, After φ” value was 0.520 mg, the “Fraction3, Before φ” value was 0.580 mg and the “Fraction4, After φ” value was 0.127 mg. For the same molecule, the “Fraction4, Before φ” value was 0.129 mg. With B3 the “Final um, After φ” value was 1.442 mg, the “Final um, Before φ” value was 1.390 mg and the “Fraction1, After φ” value was 0.015 mg. For the same molecule, the “Fraction1, Before φ” value was 0.019 mg, the “Fraction2, After φ” value was 1.126 mg and the “Fraction2, Before φ” value was 1.135 mg. For the same molecule, the “Fraction3, After φ” value was 0.251 mg, the “Fraction3, Before φ” value was 0.255 mg and the “Fraction4, After φ” value was 0.050 mg. The “Fraction4, Before φ” value was 0.057 mg.

From US20190309074A1, “DEGLYCOSYLATED ANTIBODY SPECIFICALLY BINDING TO CLEC14A AND USES THEREOF” (WOORI TECHNOLOGIES CORPORATION, priority 2016, published 2019)
